Drawing on article PMC8908386, this text covers stoichiometry N (RBBP per MTA^C) for one substance.

This experiment concerns the target FLAG-MTA1^C (UniProt Q13330). The experiment can be described thus: affinity purification with mass spectrometry.
UniProt Q13330, sequence (Q13330 449-715): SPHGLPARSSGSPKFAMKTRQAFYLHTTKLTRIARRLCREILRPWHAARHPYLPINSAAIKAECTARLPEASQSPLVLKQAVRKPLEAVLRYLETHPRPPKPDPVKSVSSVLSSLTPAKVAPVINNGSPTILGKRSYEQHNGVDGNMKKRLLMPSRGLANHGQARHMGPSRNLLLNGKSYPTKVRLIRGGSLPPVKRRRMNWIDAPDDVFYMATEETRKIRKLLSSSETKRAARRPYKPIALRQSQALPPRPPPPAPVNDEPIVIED

The substance “HA-RBBP4 (from UniProt Q09028 1-425) (natural protein)” showed a stoichiometry N (RBBP per MTA^C) of 2.5.
